A short description of the data set: soluble on expression in E. coli; label from the status in PepcDB or PDB records.
In the case of “MAMLELLYTALLYLIQPLIWIRLWVRGRKAPAYRKRWGERYGFYRHPLKPGGIMLHSVSVGETLAAIPLVRALRHRYPDLPITVTTMTPTGSERVQSAFGKDVQHVYLPYDLPDALNRFLNKVDPKLVLIMETELWPNLIAALHKRKIPLVIANARLSARSAAGYAKLGKFVRRLLRRITLIAAQNEEDGARFVALGAKNNQVTVTGSLKFDISVTPQLAAKAVTLRRQWAPHRPVWIATSTHEGEESVVIAAHQALLQQFPNLLLILVPRHPERFPDAINLVRQAGLSYITRSSGEVPSTSTQVVVGDTMGELMLLYGIADLAFVGGSLVERGGHNPLEAAAHAIPVLMGPHTFNFKDICARLEQASGLITVTDATTLAKEVSSLLTDAVYRSFYGRHAVEVLYQNQGALQRLLQLLEPYLPPKTHLEHHHHHH”, the “soluble on expression in E. coli” value is “not soluble”.

Regarding “MAMPEIDALLGLSFCLYFFDNKQHKLPHIHVKYGSYELIIAIETGECLEGYLPNKQRKRAENHILEHREQLMVMWNKAVNGENPGKLGDLCLEHHHHHH”, the “soluble on expression in E. coli” value is “not soluble”.

“MAMSLREELWLWKKEKLAEHVANNLRKKKHEVWIARDREEILERVKELIPEGATVSAGGSLTLADTGVIELLRSGRYNFLDRAAAKTREEVEEIYRKSFWADYYFTSVNAITEDGKLVFLDGNGNRVAAVVFGPKNVVVIASVNKVVKDVEEARERLRYISPMNSKRLNLETPCTKTGFCADCSSPQRICDYFLVVESGVRQPGRFKVILTLEDFGLLEHHHHHH”: the “soluble on expression in E. coli” value is listed as “not soluble”.

With “MANDVMNRNYDFFDPMNFFNEVGNLGRDMFSGDSSMKTDVVEHDKDYVVTAELPGFKKDDIHVDYHDETLRISGKTEVNQSAKDDDGRILRQERRSQNVARSFYLPGIDLKNVKATYADGILTLTLPKQTEVDGSHEISIDLEHHHHHH”, the “soluble on expression in E. coli” value was “soluble”.

As for “MANFEDFLTLDLRIGTVTHAEEFKEARVPAIKLEIDFGELGMKQSSAQITKRYNPEDLIGQQIVAVVNFPPKRVAGFKSEVLVLGGVPEAGDVVLLQPNMELPNGTKIS”, the “soluble on expression in E. coli” value is “not soluble”.

As for “MANKHHVYWYRHHIVNIIMIVDSKTSDWILIDTGLFYSEAFILKKIRRVLGELIPPKAIILTHGHFDHVGALRPLLQRFPNVPVYAHELELPFLTGQRHYVKPDPSVPGGLMAKLAWLYPYHAYDFSRIICPLPDDGTLPFFTDWRWIHTPGHTEGHVSLFRPSDRFLIAGDAFTTVKQESLLSVLAQKKEIHGPPAYFTPDWELAKTSVETLQKLEPAFAVTGHGQMMEGSSLHSGLKRLISQFEQVAVPDLEHHHHHH”, the “soluble on expression in E. coli” value is on record as “soluble”.

On to “MANQCFNQAKAVLEFRLDPCHLPQTTTYFSSKTGNQMICSLSERGVFFKTDTFSSLSRLVPSYQFKGIAARTVITLSGEKAVALELLHANEESCVPLLVSRDLNNVLLDWRLWADTYSLPMLMINEDNRLVVVKDRSDLRRFFSTTLHFRKKRFLLRYRNPLGLRLMIANQVAL”, for which the “soluble on expression in E. coli” value is given as “not soluble”.

Consider “MANQVNGNAVQLKEEEEPMDTSSVTHTEHYKTLIEAGLPQKVAERLDEIFQTGLVAYVDLDERAIDALREFNEEGALSVLQQFKESDLSHVQNKSAFLCGVMKTYRQREKQGSKVQESTKGPDEAKIKALLERTGYTLDVTTGQRKYGGPPPDSVYSGVQPGIGTEVFVGKIPRDLYEDELVPLFEKAGPIWDLRLMMDPLSGQNRGYAFITFCGKEAAQEAVKLCDSYEIRPGKHLGVCISVANNRLFVGSIPKNKTKENILEEFSKVTGLTEGLVDVILYHQPDDKKKNRGFCFLEYEDHKSAAQARRRLMSGKVKVWGNVVTVEWADPVEEPDPEVMAKVKVLFVRNLATTVTEEILEKSFSEFGKLERVKKLKDYAFVHFEDRGAAVKAMDEMNGKEIEGEEIEIVLAKPPDKKRKERQAARQASRSTAYEDYYYHPPPRMPPPIRGRGRGGGRGGYGYPPDYYGYEDYYDDYYGYDYHDYRGGYEDPYYGYDDGYAVRGRGGGRGGRGAPPPPRGRGAPPPRGRAGYSQRGAPLGPPRGSRGGRGGPAQQQRGRGSRGSRGNRGGNVGGKRKADGYNQPDSKRRQTNNQQNWGSQPIAQQPLQQGGDYSGNYGYNNDNQEFYQDTYGQQWK”, for which the “soluble on expression in E. coli” value is reported as “soluble”.

Turning to “MANSLCFFSSPPTFCFQSPSKNPKPSHFFSTNDNTSSLVQKRELLQTSRSQSFEVKAANNNPQGTKPNSLVCANCEGEGCVACSQCKGGGVNLIDHFNGQFKAGALCWLCRGKKEVLCGDCNGAGFIGGFLSTFDE”, the “soluble on expression in E. coli” value is “soluble”.

Regarding “MANSNTQRMGTGSAILPARRRRATPRRLPKRAAHHYTPRVFSAIEPENSPMLKRSLALAAGIALSLSAALAHAETLKELKVSAIPDEAPTELLRKFKPLGAYLEKQLGMPVKFVPVADYAGVVEALAADRLDMAWLGGFTFVQARLKTGNAIPLVQREQDQQFTSKFITADPQVKSLQDLKGKTFAFGSVSSTSGSLMPRYFMQKDGIVPEQFFSRVAYSGAHDATVAWVQAGKVDAGVLNASVWQKLVDSGKVDTAKVKVFATTPTYYDYNWTVRGNLDPALAEKIKQAFLALDPAKPADKEILDLQAASRFIETNPDNYKGIEESARAAGLLK”, the “soluble on expression in E. coli” value was “not soluble”.

Turning to “MAPLGTTVLLWSLLRSSPGVERVCFRARIQPWHGGLLQPLPCSFEMGLPRRRFSSEAESGSPETKKPTFMDEEVQSILTKMTGLNLQKTFKPAIQELKPPTYKLMTQAQLEEATRQAVEAAKVRLKMPPVLEERVPINDVLAEDKILEGTETTKYVFTDISYSIPHRCLEHHHHHHH”, the “soluble on expression in E. coli” value was “not soluble”.

With “MAPRVITLSPANTELAFAAGITPVGVSSYSDYPPQAQKIEQVSTWQGMNLERIVALKPDLVIAWRGGNAERQVDQLASLGIKVMWVDATSIEQIANALRQLAPWSPQPDKAEQAAQSLLDQYAQLKAQYADKPKKRVFLQFGINPPFTSGKESIQNQVLEVCGGENIFKDSRVPWPQVSREQVLARSPQAIVITGGPDQIPKIKQYWGEQLKIPVIPLTSDWFERASPRIILAAQQLCNALSQVDLEHHHHHH”, the “soluble on expression in E. coli” value is reported as “soluble”.

Take “MAQDWNDKIESAQKMLPLIAQLHNNNNVVVSVFGRLLINVTDIDIVKAHRYSRLATETELSPADTLPVLEALHSINVGPASIDLGRLVELHRSKGGDLTQFLTEELSNVIDTRPA”: the “soluble on expression in E. coli” value is listed as “not soluble”.

As for “MAQEIELKFIVNHSAVEALRDHLNTLGGEHHDPVQLLNIYYETPDNWLRGHDMGLRIRGENGRYEMTMKVAGRVTGGLHQRPEYNVALSEPTLDLAQLPTEVWPNGELPADLASRVQPLFSTDFYREKWLVAVDGSQIEIALDQGEVKAGEFAEPICELELELLSGDTRAVLKLANQLVSQTGLRQGSLSKAARGYHLAQGNPAREIKPTTILHVAAKADVEQGLEAALELALAQWQYHEELWVRGNDAAKEQVLAAISLVRHTLMLFGGIVPRKASTHLRDLLTQCEATIASAVSAVTAVYSTETAMAKLALTEWLVSKAWQPFLDAKAQGKISDSFKRFADIHLSRHAAELKSVFCQPLGDRYRDQLPRLTRDIDSILLLAGYYDPVVAQAWLENWQGLHHAIATGQRIEIEHFRNEANNQEPFWLHSGKR”, the “soluble on expression in E. coli” value is reported as “soluble”.

Turning to “MAQENPLWMRHCAISPDGTTIAFTYKGDIFTVPVSGGKATQITTNPAFDTTPIWSPDSKQIAFASDRMGSMDVFIVSKDGGEPRRLTTFSGGETPVAFTDAGHILFTADIMPSTEDAGFPSNGQFQQIYQIPVSGGRPVMFSSMPMECISINKEGTILYQDKKGYEDYWRKHQKSPIARDIWMLRPGQTPRYEKQTTFIGEDREPVWAPDGKSFYYLSEENGTFNVYQRTPGSDTSKQVTHHKQHPVRFLEHHHHHH”, the “soluble on expression in E. coli” value is “not soluble”.

Take “MAQMKDNNVSNRATLVLYENRFIPLYRMIKEELIRFVQKKGIKSGMALPGDNELASQFGVSVGTVRRAIAELVSERIVIRQQGRGTFLAPYDTSRMLNSFWHIERRDGVVDVPLVSTHGFSQASATEEVAQKLALQPGDPVFVIKNSMTMQGTPVLLDTIYVPVRTFEGLTREKLSARDATIYDFYREQYGINIVKTIDRVSATVADKDTAKRLGCKLGAPMLRILRVAYSFGDTPIEYRCSLLDSENHEYVDVTGGDTSRYG”: the “soluble on expression in E. coli” value is “not soluble”.

As for “MAQPKFVVAEIVEMEDHPDSDHLHICKVNVGFADPVQIVCGAPNAALGLKTVAALPGAMMPNGSLIFPGALRGVQSYGMLCSARELELPNAPEVRGIIELSSDLSAGKAFDSETMLEHHHHHH”, the “soluble on expression in E. coli” value is “not soluble”.

For the sequence “MAQSKPAYKVADIKLADFGRKEIILAENEMPGLMAMRSKYGPSQPLKGARIAGCLHMTIQTAVLIETLTALGAEVQWSSCNIFSTQDHAAAAIAQTGVPVYAWKGETDEEYEWCIEQTIVFKDGQPLNMILDDGGDLTNLVHAKYPQYLAGIRGLSEETTTGVHNLAKMLAKGDLKVPAINVNDSVTKSKFDNLYGIRESLPDGIKRATDVMLAGKVAVVAGYGDVGKGSAASLKAFGSRVIVTEIDPINALQAAMEGYEVTTLEEAAPKANIIVTTTGCKDIVTGKHFELLPNDAIVCNVGHFDCEIDVKWLNTNATKKDTIKPQVDRYTLKNGRHVILLAEGRLVNLGCATGHPSFVMSNSFTNQVLAQVELWTKFGTPQEYKLGLYVLPKTLDEEVAYLHLAQLGVKLTKLSDEQASYLGVPVAGPYKPDHYRY”, the “soluble on expression in E. coli” value was “not soluble”.

In the case of “MAQSLPPGDIDFQPRKIVFNAPYNEKQVFQIKLINTSALRIAFGINTYMRKLRVDTLCTPRCGVLDPNEHILLAVSCSAFAFGQVDTTNDRITVEWTNTPEGSDKQFCREWLEGEGMVRRKIILIEYNSTPIAPKPTTSSKPLLQATKLGMWLPIGFAASELYDYEKGVPLDRETCEKNLEKLIKNDRDVDYYEWLNLAQQCRTENHKLMEQMALGMAFTSAMANKQHKKVSRKADKDKITGAIVQNKMFSIETAEIWDRVLTLPNRKWFQISDVVTDGEVSNWSSANLVTHVRALARSVFDKVDEADPHMMCYATSQNACIYVPIDKDFFDGFAEYLIGGFGQEQSRDLKLQVRKLVTEVMGNKLNRVRARYNKMYGKDASEEAAKWMREELDKKDGELKECQLIFSKGSKSSYAIEVHGEEEEDLVKSEVLSGDEDVEME”, the “soluble on expression in E. coli” value is “not soluble”.

As to “MAQVAIITASDSGIGKECALLLAQQGFDIGITWHSDEEGAKDTAREVVSHGVRAEIVQLDLGNLPEGALALEKLIQRLGRIDVLVNNAGAMTKAPFLDMAFDEWRKIFTVDVDGAFLCSQIAARQMVKQGQGGRIINITSVHEHTPLPDASAYTAAKHALGGLTKAMALELVRHKILVNAVAPGAIATPMNGMDDSDVKPDAEPSIPLRRFGATHEIASLVVWLCSEGANYTTGQSLIVDGGFMLANPQFNPE”, the “soluble on expression in E. coli” value is “soluble”.

“MAQVMYATPDNMLSRFGEQDLTLLTEREDSVPGEINLALLEQALSDASAEIDGYIAGRYVLPLTTVPAVLERNCCDIARYFLYGDKAPEQVEKRYAAVVKFLTAVSKGDISLGLATTGETADQSELVISIESAGSVFGRKSAKGFI”: the “soluble on expression in E. coli” value was “soluble”.

With “MARFIARTKLNIDDIKEVDEYKALIPENNQYEELKKAIKEQGFLFPVIVNQNRELIDGYTRLRIARELGLTEIPAEVYETGGREEELDIIASLNLKRRHLTKDELVLLIDKIHEMKKRLKKDNIEEQNSGTGARISAIDKENISKNSVTEESREIREELKKLVPDVQINEDTIRKYLQIKKEVPWLVQYIGDEKKNKIGIRKAYEIYTLLSKKNLLDLDKRIPKTELTKLITDKEGRKILERDDLLQLILDHKMAVSQAINKLKTEEKIKQSKKKSRVKTEDEYAETDEEEEDETEEGQRELDENEEYPLLEEWQKAKEEEKQEAEQQLTPQLNVSPNSNTTQVTLEFSNVLKELSNKGFTKLDFNTDVVIAKINDKYYAILLEALKSLERGSKQYKELAEFLVSNNLAVYDPEEDNYIISWRSLNCS”, the “soluble on expression in E. coli” value is listed as “soluble”.

(Values after the DeepSol protein solubility set.)
